Measurements reported in patent US20230176070A1 (published 2023).

Target: glutathione S-transferase (UniProt P08515 1-218 = GST)
Assay: SPR

Chain of glutathione S-transferase (P08515 whole entry): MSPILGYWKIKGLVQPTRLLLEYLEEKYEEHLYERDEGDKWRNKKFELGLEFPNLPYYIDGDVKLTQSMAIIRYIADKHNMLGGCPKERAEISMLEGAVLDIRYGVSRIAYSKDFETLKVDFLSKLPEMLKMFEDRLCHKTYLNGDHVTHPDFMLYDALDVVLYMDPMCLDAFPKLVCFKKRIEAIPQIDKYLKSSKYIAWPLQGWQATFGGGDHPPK

B1: G47 (VHH)
VHH: QVQLVESGGGLVQAGGSLRLSCAASERIFSNYAMGWFRQAPGKEREFVASIRGSGSQTSYADSVKGRFTISRDGAKDTVDLQMNSLKPEDTAVYYCSAKKYCGSTYNRAEGYDYWGQGTQVTVSS
Question: With B1 as the binder, how does the Kd read?
Answer: 17.6 nM
